Results from article doi:10.1101/2025.11.10.687720, “Magnetosome organelles are organized through interactions between McaA and McaB that alter the dynamics of the bacterial actin-like protein MamK” (bioRxiv, 2025).

Target: the molecule itself
Assay: co-sedimentation; pelleting assay, each protein at 1 μM in polymerization buffer (10 mM Tris-HCl pH 7.5, 25 mM KCl, 2 mM MgCl2, 1 mM DTT) with or without 1 mM ATP, 25°C for 10 min, 100,000 x g for 30 min at 4°C; SDS-PAGE of pellet and supernatant

B1: untagged recombinant MamK (natural protein, Magnetospirillum magneticum AMB-1, UniProt Q2W8Q6 1-347, looked up)
chain: MSEGEGQAKNRLFLGIDLGTSHTAVMSSRGKKFLLKSVVGYPKDVIGLKLLGRPYVVGDEAFEMRSYLDIRYPLQDGVLSEISDRDIEVARHLLTHVVKSAEPGPNDEICAVIGVPARASAANKALLLKMAQEVVHTALVVSEPFMVGYGLDKLINTIIVDIGAGTTDICALKGTVPGPEDQVTLTKAGNYVDERLQNAILERHPELQMNVNVACAVKEQFSFVGTPTEVASFEFRAAGKPVRADVTEPVKIACEALMPDIIESIETLLRSFQPEYQATVLQNIVFAGGGSRIRGLAAYVKEKLRPFGDANVTCVKDPTFDGCRGALRLAEELPPQYWRQLGDVSGS
notes: MamK, bacterial actin-like protein; 37.6 kDa as printed; The monomeric fractions were pooled; the protein forms filaments with ATP; also called purified MamK; MamK filaments; source: E. coli BL21, purified (ammonium sulfate precipitation, anion exchange, gel filtration)
Does B1 bind?
Result: binds
